According to the nanobody polyreactivity screen of Harvey et al. (2022):

Experiment: yeast display, Sf9 membrane polyspecificity reagent, FACS + sequencing; frameworks hold sequencing errors
Outline: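 A synthetic nanobody library was expressed on Saccharomyces cerevisiae BJ5465 by galactose induction for 36–48 hours. The library was stained for 1 hour at 4 °C with 10% biotinylated, detergent-solubilized Sf9 membrane reagent and enriched with streptavidin microbeads before FACS. Low and high (top ~1%) gates were set on anti-HA fluorescence for expression and streptavidin fluorescence for reagent binding, and each polyreactivity label reflects the gate of origin.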

Sequence | polyreactivity (PSR sort gate)
QVQLVESGGGLVQAGGSLRLSCAASGFIFTRYAMGWYRQAPGKERELVAAISASGGSTYYADSVKGRFTISRDNAKNTVYLQMNSLKPEDTAVYYCAAVPYRYTYDYWGQGTQVTVSS | high polyreactivity
QVQLVESGGGLVQAGGSLRLSCAASGSIFRRYAMGWYRQAPGKEREFVAAITGSGGRTYYADSVKGRFTISRDNAKNTVYLQMNSLKPEDTAVYYCAARRRDRVTYYYWGQGTQVTVSS | high polyreactivity
QVQLVESGGGLVQAGGSLRLSCAASGSIFNANAMGWYRQAPGNERELVAGIRSGSSTNYADSVKGRFTISRDNAKNTVYLQMNSLKPEDTAVYYCATEGYWVYGFDDEYWGQGTQVTVSS | low polyreactivity
QVQLVESGGGLVQAGGSLRLSCAASGRTFRTNAIGWYRQATGKERELVAAIRASTGSTYYADSVKGRFTISRDNAKNSVYLQMNSLKPEDTAFYYCAARLRRGLTATWYYYWGQGTQVTVSS | high polyreactivity
QDQLVESGGGLVQAGGSLRLSCAASGTIFDVYAMGWYIQAPGKERELVAAISYGGGSTYYADSVKGRFTISRDNAKNTVYLQINSLKPEDTAVYYCAADDDVYGLEYGYWGQGTQVTVSS | low polyreactivity
QVQLVESGGGLVQAGGSLRLSCAASGRTFRYYTMGWYRQAPGKEREFVAAISSTGGTYYADSVKGRFTISRDNAKNTVYLQMNRLKPEDSAVYYCAATFIQVVVNVQLYDYDYWGQGTQVTVSS | low polyreactivity
QVQLVESGGGLVQAGGSLRLSCAASGLTFADNTMGWYRQAPGKERELVAAIDWSGGGTDYADSVKGRFTISRDNAKNTVYLQMNSLKPEDTAVYYCNAERTSWEDDYWGQGTQVTVSS | low polyreactivity
QVQLVESGGGLVQAGGSLRLSCAASGSIVDNRGWYRQAPGKERELVAAISSSGDSTYYADSVKGRFTISRDNAKNTVYLQMNSLKPEDTAVYYCAADFYYYKKQYDYWGQGTQVTVSS | low polyreactivity
QVQLVESGGGFVQAGGSLRLSCAASGFTFWVYAMGWYRQAPGKERELVAGITWSGGSTSYADSVKGRFTISRDNAKNTVYLQMNSLKPEDTAVYYCAADDFGYPDDMNYWGQGTQVTVSS | low polyreactivity
QVQLVESGGGLVQAGGSLRLSCAASGFIFYINAMGWYRQAPGKERELVAAISTSGGSTYYADSVKGRFTISRDNAKNTVYLQMNSLKPEDSAVYYCAAEGSYWYYSYDYWGQGTQVTVSS | high polyreactivity
QVQLVESGGGLVQAGGSLRLSCAASGFTFGFYVMGWYRQAPGKERELVAAITVRAGSTYYADSVKGRFTISRDNAKNTVYLQMNSLKPEDTAVYYCAADSYRLYSSIAYYGMYSWGQGTQVTVSS | high polyreactivity
QVQLVESGGGLVQAGGSLRLSCAASGFTFFDYVMGWYRQAPGKERELVAAISRNVGSTYYADSVKGRFTISRDNAKTTVYLQMNSLKPEDTAVYYCAAEPPPYEYDYWGQGTQVTVSS | high polyreactivity
QVQLVESGGGLVQAGGSLRLSCAASGFIFGYYAMGWYRQAPGKERELVAAISSGGTTTYYADSVKGRFTISRDNAKNTVYLQMNSLKPEDTAVYYCAKVSQRRVDNSDYDYWGQGTQVTVSS | high polyreactivity
QVQLVESGGGLVQAGGSLRLSCAPSGFIYHWNAMGWYRQAPGKERELLAAITWRGTNTYYADSVKGRFTISRDNAKNTVYLQMNRLKPEDTAVYYCAARYVTYYGTFDYWGLGTQVTVSS | low polyreactivity
QVQLVESGGGLVQAGGSLRLSCAASGFIIGGNPMGWYRQAPGKVRELVAAITGGGSTYYADSVKGRFTISRENAKNTVYLQMNSLKPEDTAVYYCNAGRVLRLAYNYWGQGTQVTVSS | low polyreactivity
QVQLVESGGGLVQAGGSLRLSCAASGFTFYDYAMVWYRQAPGKERELVAGITSTGRTYYADSVKGRFTISRDNAKNTVYLQMNSLKPEDTAVYYCNARTLPNYYRRYDYWGQGTEVTVSS | high polyreactivity
QVQLVESGGGLVQAGGSLRLSCAASGFTFVSNAMGWYRQAPGKERELVAAITYSGTRTYYADSVKGRFTISRDNAKNTVYLQMNSLKPEDTAVYYCAARRGYASAYYYWGQGTQVTVSS | high polyreactivity
QVQLVESGGGLVQAGGSLRLTCDASGITYYGYAIGWSRQAPGKEREWVAGINNGGSTTYADSVKGRFTISRDNAKITVYLQMNSVKPEDTAVYYCAADPVYLNKLLYYVGQAYYYWGQGTQVTVSS | high polyreactivity
QVHLVESGGGLVQAGGSLRLSCAASGSIFYYNAMGWYRQAPGKERELVAAITSGDSTNYADSVKGRFTISRDNAKNTVYLQMNSLKPEDTAVYYCNTDGLVRNGPFYSWGQGTQVTVSS | low polyreactivity
QVQLVESGGGLVQAGGSLRLSCAASGRTFFPYAMGWYRQAPGKERELVAAISLDDDTTYYADSVKGRFTISRDNAKNTVYLQMNSLKPEDTAVYYCAARGTRVRSLYDYWGQGTQVTVSS | high polyreactivity
QVQLVESGGGLVQAGGSLRLSCAASGLIFYPYAMGWYRQAPGKERELVAGISSSGDSTYYADSVKGRFTISRDNAKNTVYLQMNSLKPDDTAVYYCNTGWDPYGYDYWGQGTQVTVSS | low polyreactivity
QVQLVESGGGLVQAGGSLRLSCAASGIIFRYYAMGWYRPAPGKERELVAAISSGGSTNYADSVKGRFTISRDNAKNTVYLQMNSLKPEDTAVYYCAADYTYNGLEYDYWGQGTQVTVSS | high polyreactivity

Sequence | polyreactivity (PSR sort gate)
QVQLVESGGGLVQAGGSLRLSCAASGRTFRVYAMGWYRQAPGKEREFVAAISYSGGRTNYADSVKGRFTISRDNAKNTVYLQMNSLKPEDTAVYYCARTKQEYTFGQFYLGDYWGQGTQVTVSS | low polyreactivity
QVQLVESGGGLVQAGGSLRLSCAASGSTVSNYAMGWYRQAPGKERELVASISNGGSTNDADSVKGRFTISRANAKNTGYLQMNSLKPEDTAVYYCNAESKAKYDYWGQGTQVTLSS | low polyreactivity
QVQLVESGGGLVQAGGSLRLSCAASGSTFKAYAMGWYRQAPGKEMELVAVITADGSTSTHYADSVKGRFTISRDNAKNTVSLQMNSLNPEDTAVYYCAAGSPYYSERYYYWGQGTQVTVSS | low polyreactivity
QVQLVESGGGLVQAGGSLRLSCAASGSIFPDNAMGWYRQAPGKERELVAAITRGGSTYYADSVKGRFTISRDNAKNTVYLQMNSLKPEDTAVYYCAARRRYLWSYDYWGQGTQVTVSS | high polyreactivity
QVQLVESGGGLVQAGGSLRLSCAASGSTFGYNAMGWYRQAPGTERELVAAISSRGGSTYYADSVKGRFTISRDNAKNTVYLQMNSLKPDDTAVYYCAADPPNGAEYYWGQGTQVTGSS | high polyreactivity
QVQLVESGGGLVQAGGSLRLSCAASGSIFKSYAMGWYRQAPGKERELVAAITYRGGSTYYADSVKGRFTISRDNAKNTVYLQMNSLKPEDTAVYYCAKDQHRYYQVWGDYWGQGTQVTVSS | high polyreactivity
QVQLVESGGGLVQAGGSLRLSCAASGSIIKYYAMGWYRQAPGKERELVAAISWRGGRTYADSVKGRFTISRDNAKNTVYLQLNSLKPEDTAVYYCNARAPQGYGTHRSKYRWGPMGYWGQGTQVTVSS | high polyreactivity
QVQLVESGAGLVQAGGSLRLSCAASGITFGRYTMGWYRQAPGKERELVAAITNGDITYYADSVKGRFTISRDNAKNTVYLQMNSLKPEDTAVYYCAADRSFWYDYWGQGTQVTVSS | high polyreactivity
QVQLVDSGGGLVQAGGSLRLSCAASGSIFVHYAMGWSRQAPGKEWELVAAITSSGGRTYYADSVKGRFTISRDNAKKTVYLQMNSLKPEDTEVYYCAAKQGRYNIYSNYDYWGQGTQVTVSS | high polyreactivity
QVQLVESGGGLVQAGGSLRLICAASGSTVYNAMGWYRQAPGTEREFVAVITDSDGSTYYADSVKGRFTISRDNAKNTVYLQMNSLKPEDTAVYDCAADDYAYSYGYWLTYDYWGQGTQVTVSS | low polyreactivity
QVQLVESGGGLVQAGGSLRLSCAASGRIFDIYAMGWYRQAAGKERELVAAIRLSSGTTYYADSVKGRFTISRDNAKNTVYLQMNSLKPEDTAVYYCGADFIRPPYDYWGQGTQVTVSS | high polyreactivity
QVQLVESGGGLVQAGGSLRLSCAASGFIFWYYGMGWYRQAPGKERELVAAINWSGTSTNYADSVKGRFTISRDNAKNTVYLQMNSLKPEDTAVYYCAAEYWYTYSWGQGTQVTVLS | low polyreactivity
QVQLVESGGGLVQAGGSLRLSCAASGSTFRRYAMGWYRQAPGKERELVAAITTRGGSTYYADSVKGRFTISRDNAKNSVYLQMNSLKPEDTAVYYCARDYSTYLRTAGDYWGQGTQVTVSS | low polyreactivity
QVQLVESGGGLVQAGGSLRLSCAASGRIFSYYAMGWYRQAPGKERELVASITSGGSTYADSVKGRFTISRDNAKNTVYLQMNSLKPEDTAVYYCNARKRHYYGYYYWGQGTQVTVSS | high polyreactivity
QVHHVESCGGLVQAGGSLRLSCAASGRTFVYYAMGWYRQAPGKEREFVAAISRSGGRTSYAYSVKGRFTISRDNPKNTVYLPMNSLKPEDTAVYYCGAEKRTQPTSREYYWGQGTQVTVSS | high polyreactivity
QVQLLESGRGLDQAGGSLRLSCAASGGTYKTNPMGMYRQAPGKEMELVAAITGSGTSTYYADSVKGRFTISRDYAKNTVYLQMNSLNPEDTAVYYCAADKLYHPGIGDDYWGQGTQETVSS | low polyreactivity
QVQLVESGGGLVQAGGSLRLSGAASGSTFGWYVMGWYRQAPGKERELVASITGSGGSTYYADSVKGRFTISRDHAKNTVYLQMNSLNPEDTAVYYCAAHTGWYDDWTHDSWGQGTQVTVSS | low polyreactivity
QVQLVESGGGLVKAGGSLRLSCAASGRNFKTYAMGWYRQAPGKERELVAAISRDGRTYYADSVKGRFTISRDNAKNTVYLQMNSLKPEDTAVYFCNKRSYRKGDYWGQGTQVTVSS | low polyreactivity
QVQLVESGGGLVQAGGSLRLSCAASGFISHKYAMGWYRHAHGKERELVAAISWSGTSTHYADSVKGRFTISRDNAKKTVYIQMKSLKPEDTAVYYCAARRYPVLKYDYWGEGTQVTVSS | high polyreactivity
HVQLVESGGGLVQAGGSLRLSCAASGRISIRNAMGWYRQAPGKERELGAAISRSGGSTYYADSVKGRFTISRDNAKNTVYIQMNSLKPEDTAVYYCAASFWSSGQWYDYWGQGTQVTVSS | high polyreactivity
QVQLVESGGGLVQAGGSLRLSCAASGFIYVYAMGWYRQPPRKERELVAAITATGDSTYYADSVKGRFTISRDNAKNTVYLQMNSLKPEDTAVYYCAAEWHYFVTMYYWGQGTQVTVSS | low polyreactivity
